# According to paper PMC10359629, “Thumb-domain dynamics modulate the functional repertoire of DNA-Polymerase IV (DinB)” (Nucleic Acids Research, 2022):
# B1: DNA polymerase IV (DinB), DinB^1-351 (enzyme, E. coli, UniProt Q47155 1-351, looked up)
# chain: MRKIIHVDMDCFFAAVEMRDNPALRDIPIAIGGSRERRGVISTANYPARKFGVRSAMPTGMALKLCPHLTLLPGRFDAYKEASNHIREIFSRYTSRIEPLSLDEAYLDVTDSVHCHGSATLIAQEIRQTIFNELQLTASAGVAPVKFLAKIASDMNKPNGQFVITPAEVPAFLQTLPLAKIPGVGKVSAAKLEAMGLRTCGDVQKCDLVMLLKRFGKFGRILWERSQGIDERDVNSERLRKSVGVERTMAEDIHHWSECEAIIERLYPELERRLAKVKPDLLIARQGVKLKFDDFQQTTQEHVWPRLNKADLIATARKTWDERRGGRGVRLVGLHVTLLDPQMERQLVLGL
# modifications: biotin (EZ-Link NHS-PEG4-Biotin, conditions favouring the amino-terminal α-amino group) in the BLI assay; isotope-labelled ([U-2H,15N] or MALVI^proS methyl-labelled) in the NMR titrations
# notes: E. coli DNA polymerase IV (DinB), residues 1-351, from pET28b(+)-DinB (Genscript); No removal of the His6 tag is described for DinB and DinBΔPAD; also called full-length DinB; MALVI^proS-DinB; source: E. coli BL21 (λDE3), purified (Ni2+-Histrap, heparin, SEC)
# B2: DinBΔPAD (DinB^1-230) (domain or fragment, E. coli, UniProt Q47155 1-230, looked up)
# chain: MRKIIHVDMDCFFAAVEMRDNPALRDIPIAIGGSRERRGVISTANYPARKFGVRSAMPTGMALKLCPHLTLLPGRFDAYKEASNHIREIFSRYTSRIEPLSLDEAYLDVTDSVHCHGSATLIAQEIRQTIFNELQLTASAGVAPVKFLAKIASDMNKPNGQFVITPAEVPAFLQTLPLAKIPGVGKVSAAKLEAMGLRTCGDVQKCDLVMLLKRFGKFGRILWERSQGID
# modifications: biotin (EZ-Link NHS-PEG4-Biotin, conditions favouring the amino-terminal α-amino group) in the BLI assay; [U-2H,15N]-labelled in the NMR titration
# notes: E. coli DNA polymerase IV (DinB), residues 1-230 (Fingers, Palm, Thumb); stop codon introduced at amino acid 231; also called Biotin-DinBΔPAD; source: E. coli BL21 (λDE3), purified (Ni2+-Histrap, heparin, SEC)
# Key:
# [1] = biological target: T1, RNA polymerase core enzyme (subunits α2ββ'ω) (UniProt P0A7Z4 1-329; P0A8V2 1-1342; P0A8T7 1-1407; P0A800 1-91); experiment: BLI; Octet RED96, 303 K; 0.5 μM Biotin-DinB immobilised on streptavidin biosensors, blocked with biocytin; RNAP core as analyte in 2-fold serial dilution; 50 mM KPi pH 6.5, 150 mM NaCl, 25 mM MgCl2, 1 mM TCEP, 0.5% BSA; double referencing; conditions: both partners purified
# [2] = biological target: T1, RNA polymerase core enzyme (subunits …); experiment: BLI; Octet RED96, 303 K; 0.5 μM Biotin-DinBΔPAD immobilised on streptavidin biosensors, blocked with biocytin; RNAP core as analyte in 2-fold serial dilution; 50 mM KPi pH 6.5, 50 mM NaCl, 25 mM MgCl2, 1 mM TCEP, 0.25% BSA; double referencing; conditions: both partners purified
Binder,Kd [1],Kd [2]
B1,6.4 ± 0.07 nM,–
B2,–,5.9 ± 0.05 nM
